B1: 21B12, anti-PCSK9 huIgG4 (antibody, V domains shown)
VH: QVQLVQSGAEVKKPGASVKVSCKASGYTLTSYGISWVRQAPGQGLEWMGWVSFYNGNTNYAQKLQGRGTMTTDPSTSTAYMELRSLRSDDTAVYYCARGYGMDVWGQGTTVTVSS
VL: QSALTQPASVSGSPGQSITISCTGTSSDVGGYNSVSWYQQHPGKAPKLMIYEVSNRPSGVSNRFSGSKSGNTASLTISGLQAEDEADYYCNSYTSTSMVFGGGTKLTVLQ
B2: 16F12, anti-PCSK9 huIgG4 (antibody, V domains shown)
VH: QVHLVESGGGVVQPGRSLRLSCAASGFTFNSFGMHWVRQAPGKGLEWVALIWSDGSDEYYADSVKGRFTISRDNSKNTLYLQMNSLRAEDTAVYYCARAIAALYYYYGMDVWGQGTTVTVSS
VL: QSVLTQPPSVSAAPGQKVTISCSGSSSNIGNNFVSWYQQLPGTAPKLLIYDYNKRPSGIPDRFSGSKSGTSATLGITGLQTGDEADYYCGTWDSSLSAYVFGTGTRVTVLQ

Assays:
[1] = biological target: human PCSK9 (proprotein convertase subtilisin kexin type 9), mature form (human) (UniProt Q8NBP7); test: BIAcore SPR, antibody amine-coupled to CM5 chip, PCSK9 as analyte, pH 7.4
[2] = biological target: human PCSK9 (proprotein convertase subtilisin kexin type 9), mature form (human) (UniProt Q8NBP7); test: BIAcore solution equilibrium binding assay, free PCSK9 read on immobilized 21B12
[3] = biological target: human PCSK9 (proprotein convertase subtilisin kexin type 9), mature form (human) (UniProt Q8NBP7); test: BIAcore SPR, pH 7.4
[4] = biological target: human PCSK9 (proprotein convertase subtilisin kexin type 9), mature form (human) (UniProt Q8NBP7); test: BIAcore SPR, pH 6.0
[5] = biological target: human PCSK9 (proprotein convertase subtilisin kexin type 9), mature form (human) (UniProt Q8NBP7); test: KinExA solution equilibrium, PCSK9-coated beads

Row | Binder | Kd [1] [nM] | Kd [2] [nM] | Kd [3] [nM] | koff [3] [s⁻¹] | kon [3] [M⁻¹ s⁻¹] | Kd [4] [nM] | koff [4] [s⁻¹] | kon [4] [M⁻¹ s⁻¹] | Kd [5] [nM]
1 | B1 | 0.19 | 0.015 | 0.19 | 6.63e-06 | 34900 | 0.0073 | 1.68e-05 | 2.29e+06 | –
2 | B2 | 0.47 | – | 0.47 | 4.98e-05 | 106000 | 0.029 | 7.01e-05 | 2.39e+06 | 0.015

From patent publication US20120020975A1
